According to patent EP0561496A2 (NEW ENGLAND MEDICAL CENTER HOSPITALS, INC., priority 1992, dated 1993):
Each block holds one molecule with its values, some of them ahead of it.

Columns and labels:
[1] = target: T1, recombinant GR-1 receptor (canine parietal cell gastrin receptor) (Canis lupus familiaris, UniProt P30552); assay: Competition binding of 125I-CCK-8 to intact GR-1 transfected COS-7 cells
T1 construct: expressed in transfected cells; host or cells: COS-7 cells transiently transfected with GR-1 in pCDNA-1
T1 sequence (P30552 1-453): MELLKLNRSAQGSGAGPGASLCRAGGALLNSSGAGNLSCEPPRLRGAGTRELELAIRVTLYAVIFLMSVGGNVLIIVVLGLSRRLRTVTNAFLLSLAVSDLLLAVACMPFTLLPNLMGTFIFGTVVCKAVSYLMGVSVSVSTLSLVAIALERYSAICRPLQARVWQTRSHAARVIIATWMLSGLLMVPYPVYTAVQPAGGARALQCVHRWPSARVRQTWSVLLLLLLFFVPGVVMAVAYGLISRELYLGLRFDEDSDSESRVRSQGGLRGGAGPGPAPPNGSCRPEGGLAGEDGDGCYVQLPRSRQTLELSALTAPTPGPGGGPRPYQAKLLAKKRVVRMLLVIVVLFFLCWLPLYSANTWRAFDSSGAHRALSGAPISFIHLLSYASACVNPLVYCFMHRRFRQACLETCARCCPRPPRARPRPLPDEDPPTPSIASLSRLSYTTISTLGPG
Method: COS-7 cells (1.5x 10⁶) were plated in 10 cm culture dishes (Nunc) and grown in DMEM/ 10% fetal calf serum, 5% CO₂ at 37°C. […] Twenty-four hours following transfection, cells were split into 24-well dishes (Nunc), 5000 cells/well. […] Equilibrium binding occurred after incubation for 80 min at 37°C. Cell monolayers were subsequently washed three times and bound radioactivity was quantified after cell hydrolysis in 1 N NaOH.

[2] = target: T1, recombinant GR-1 receptor (canine parietal cell gastrin receptor); assay: Competition binding in isolated plasma membranes from GR-1 transfected COS-7 cells; settings: isolated membranes from transiently transfected COS-7 cells, 60 min at 22°C; read-out: IC₅₀
Method: Binding parameters were also measured in isolated plasma membranes from COS-7 cells transfected with GR-1. Binding was performed for 60 min at 22°C.

[3] = target: T2, human brain CCK-B receptor (Homo sapiens, UniProt P32239); assay: Competition binding of 125I CCK-8 to COS-7 cells transfected with hCCKB-pcDNA I; settings: recombinant human CCK-B receptor
T2 construct: isolate the corresponding full length human CCK-B receptor cDNA from a fetal (week 23) human brain library; expressed in transfected cells; host or cells: COS-7 cells transiently transfected with hCCKB-pcDNA I
T2 sequence (P32239 1-447): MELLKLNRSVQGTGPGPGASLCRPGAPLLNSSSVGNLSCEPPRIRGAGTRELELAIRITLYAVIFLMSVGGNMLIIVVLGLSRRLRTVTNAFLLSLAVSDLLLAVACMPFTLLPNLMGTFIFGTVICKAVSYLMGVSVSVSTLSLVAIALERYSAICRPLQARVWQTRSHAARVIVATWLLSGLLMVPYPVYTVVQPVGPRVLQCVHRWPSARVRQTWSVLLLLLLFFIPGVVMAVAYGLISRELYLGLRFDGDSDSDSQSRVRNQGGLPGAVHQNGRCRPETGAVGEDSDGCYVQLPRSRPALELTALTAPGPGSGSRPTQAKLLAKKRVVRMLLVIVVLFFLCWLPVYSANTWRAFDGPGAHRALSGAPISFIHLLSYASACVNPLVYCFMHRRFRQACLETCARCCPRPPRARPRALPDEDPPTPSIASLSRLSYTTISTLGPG

[4] = target: canine parietal cell gastrin receptor (recombinant, clone GR-1, expressed in transfected COS-7 cells) (canine); assay: competition against 125I-CCK-8, intact GR-1 transfected COS-7 cells
[5] = target: canine parietal cell gastrin receptor (recombinant, clone GR-1, expressed in transfected COS-7 cells) (canine); assay: competition against 125I-CCK-8, isolated membranes of GR-1 transfected COS-7 cells
[6] = target: canine parietal cell gastrin receptor (recombinant, clone GR-1, expressed in transfected COS-7 cells) (canine); assay: cell-based or functional assay
[7] = target: gastrin receptor on native canine parietal cells (canine); assay: radioligand saturation binding, native parietal cells
[8] = target: canine parietal cell gastrin receptor (recombinant, clone GR-1, expressed in transfected COS-7 cells) (canine); assay: radioligand saturation binding, GR-1 transfected COS-7 cells
[9] = target: canine parietal cell gastrin receptor (recombinant, clone GR-1, expressed in transfected COS-7 cells) (canine); assay: 125I-CCK-8 binding to GR-1 transfected COS-7 cells, no competitor (FIG. 3)

- IC50 ([1]; intact GR-1 transfected COS-7 cells, 40 pM 125I-CCK-8 radioligand, 80 min at 37°C, read-out: IC₅₀): 1.4 nM
- IC50 [2]: 1.5 nM
Molecule: CSCC[C@H](NC(=O)[C@H](Cc1ccc(O)cc1)NC(=O)[C@@H](N)CC(=O)O)C(=O)NCC(=O)N[C@@H](Cc1c[nH]c2ccccc12)C(=O)N[C@@H](CCSC)C(=O)N[C@@H](CC(=O)O)C(=O)N[C@@H](Cc1ccccc1)C(N)=O [CCK-8-desulfate]

- IC50 ([1]; read-out: IC₅₀): 19 nM
Molecule: CN1C(=O)[C@@H](NC(=O)c2cc3ccccc3[nH]2)N=C(c2ccccc2)c2ccccc21 [L364,718]

Molecule: Cc1cccc(NC(=O)N[C@@H]2N=C(c3ccccc3)c3ccccc3N(C)C2=O)c1 [L365,260]
- IC50 [1]: 130 nM
- higher affinity than L364,718 [3]: approximately 40 fold

- IC50 [4]: 0.09 nM
- IC50 [5]: 0.08 nM
Molecule: CCK-8 (from UniProt P06307 96-103) (peptide)

- IC50 [5]: 1.5 nM
Molecule: CCK-8-desulfate (from UniProt P06307 96-103) (peptide)

- free cytosolic calcium, [Ca²⁺] [6]: 142 nM
- free cytosolic calcium, [Ca²⁺], after chelation of extracellular calcium by EGTA (2.5 mM) [6]: 88.5 nM
- level of Ins-1,3,4,5-P₄, increase [6]: 272%
- level of Ins-1,4,5-P₃, increase over control [6]: 741%
- IC50 [4]: 0.26 nM
- IC50 [5]: 0.4 nM
Molecule: gastrin I (from UniProt P01350 76-92) (peptide)

- Kd [7]: 0.27 nM
- Kd [8]: 0.08 nM
- Maximum binding in the absence of competitor (100%) [9]: 5.2 pM
Molecule: ¹²⁵I-CCK-8 (from UniProt P06307 96-103) (peptide)
